The source of these data is US8436140B2, “Natriuretic peptide-mediated imaging of atherosclerotic plaque” (priority 2008, dated 2013).

As a reminder, the tissue uptake is the share of the injected amount in each gram of the tissue.

Data set [1] relates to extracellular matrix proteins such as collagen and proteoglycans. Nature of the data set: 3T MRI of atherosclerotic lesion with plaque-targeting contrast agent. The data set is classed as in vivo, rabbit. To be noted: 0.5 μmol/kg, 1 h before scan, TP 1. As for the experimental part:
The presence of atherosclerotic lesions in the rabbits was confirmed by 3T MRI 1 hour after administration of a non-receptor specific plaque-targeting contrast agent ([…], 0.5 μmol/kg body weight, Schering AG, Germany). […] For scanning, the rabbit was placed supine into a plastic bed. Three micropipette tubes filled with 0.5 mL Gadofluorine M (Bayer Schering Pharma AG, Berlin) served as fiducial markers, and were taped into position on the bed. At the beginning of the PET study, these tubes were drained of the Gadofluorine by syringe, and refilled with 0.5 mL of ^64Cu to serve as the PET fiducials. These helped to “co-localize” the plaque regions between the two image modalities.
In this example, a MR T1 W coronal image of a typical atherosclerotic lesion in the femoral artery of a rabbit 4 weeks after air dessication-induced injury (TP 1) is shown (FIG. 6). Gadofluorine M (0.5 μmol/kg body weight) was given 1 h before the scan. […] MRI confirmed the presence of a thickened neointima in the injured vessel characteristic of the atherosclerotic-like plaques induced in this model.

The nature of the next data set: in vivo. To be noted: rabbit, iv, 20 MBq, total radioactivity. The method, then: The blood clearance studies were performed in normal rabbits (n=4) to evaluate the pharmacokinetics of tracer in vivo. About 20 MBq of ^64Cu-DOTA-C-ANF was injected intravenously into the left ear of rabbit, and blood sample (0.2 mL) was drawn from the contralateral ear over the period of 1 h (1 min, 3 min, 5 min, 10 min, 20 min, 40 min and 60 min). The activity of the blood samples were counted in gamma counter and presented in percent injected dose per gram (ID %/g). […] (FIG. 7). This tracer therefore is a highly sensitive means by which to detect a trace amount of ^64Cu-DOTA-C-ANF in the atherosclerotic animal model

Positions of bridges follow the written chain, without caps; N, C: chain ends. Residues, ends and D or L forms follow the SMILES beside them. *: point of attachment. DOTA = O=C(O)CN1CCN(CC(=O)O)CCN(CC(=O)*)CCN(CC(=O)O)CC1

`CC(C(=O)NCC(=O)NCCCC[C@H](NC(=O)CO[C@H]1O[C@H](CO)[C@@H](O)[C@H](O)[C@@H]1O)C(=O)N1CCN(S(=O)(=O)C(F)(F)C(F)(F)C(F)(F)C(F)(F)C(F)(F)C(F)(F)C(F)(F)C(F)(F)F)CC1)N1CCN(CC(=O)O)CCN(CC(=O)O)CCN(CC(=O)O)CC1` (some centres unmarked) [Gadofluorine M]: in data set [1], the “contrast agent at injured femoral artery (MR T1W image)” value is reported as “binding” and the “contrast agent uptake in control artery (MR T1W image)” value is reported as “weak uptake”.

Take `CC[C@H](C)[C@@H]1NC(=O)[C@H](CCCNC(=N)N)NC(=O)[C@H](CC(=O)O)NC(=O)[C@H]([C@@H](C)CC)NC(=O)[C@H](CCCNC(=N)N)NC(=O)CNC(=O)CNC(=O)[C@H](Cc2ccccc2)NC(=O)[C@@H](NC(=O)[C@H](CO)NC(=O)[C@H](CO)NC(=O)[C@H](CCCNC(=N)N)NC(=O)CN2CCN(CC(=O)O)CCN(CC(=O)O)CCN(CC(=O)O)CC2)CSSC[C@@H](C(N)=O)NC(=O)[C@H](C)NC(=O)CNC1=O` [^64Cu-DOTA-C-ANF, metal not drawn] ({DOTA}-RSSCFGGRIDRIGAC-NH2; disulfide 4-15): in “in vivo”, the tissue uptake at 1 min was 0.22 %ID/g, the tissue uptake at 0.05 h came out at 0.1 %ID/g and the tissue uptake at 1 h is 0.02 %ID/g.
